Reference: a protein production outcome set (Wang et al. 2014)

assay: label from the status in PepcDB records
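Note: failed if final PepcDB status was selected cloned or expressed and not failed if soluble or beyond.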

Sequence | protein production
MAEITEKVLKKPNAIPDVFERKGGSAPTATHYCAGCGHGIIHKLMAEAIDELEIQDRCVLISPVGCAVFAYYYFDCGNIQVAHGRAPAVGTGVSRAEDNAIVMSYQGDGDLASIGLNETIQAANRGEKMAVFFVNNTVYGMTGGQMAPTTLIGEKTVTCQTGRDPRFAGYPIHMCELLSSLKAPVFIERVSVSDIAHIRKAKRAIKKALEIQRDGKGYAFVEILSPCPTNLRQDANAAQKFINEEMEKEFPLQNFRDRSAEVETLNRGESDFSKECLDNIFEVNSKGAEDPSEDLSFEEKLVKIAGFGGQGVLSMGLTLAEAACRDQKYVSWYPSYGPEQRGGTSNCSVIISGHEIGSPVVYSPGVLIALNKPSLENFAKDVKTGGTIIYDENIGDFEIPNGVTAIKVPASKIATEMGVSRAANTVMLGVLSALGYTGLSESVFVGAIEQTFSKKPKLIPINVEILNAGISWAKENLAL | failed
MAEKTYSGFVAIVGKPNVGKSTLLNNLLGVKVAPISPRPQTTRKRLRGILTEGRRQIVFVDTPGLHKPMDALGEFMDQEVYEALADVNAVVWVVDLRHPPTPEDELVARALKPLVGKVPILLVGNKLDAAKYPEEAMKAYHELLPEAEPRMLSALDERQVAELKADLLALMPEGPFFYPEDYAKSDQTFGEWVAEILREEAMKRLWHEVPYAVATKVEEVAERENGVLYIKAILYVERPSQKAIVIGEGGRKIKEIGQATRKQLEALLGKKVYLDLEVKVYPDWRKDPEALRELGYRSSVG | not failed
MAELFIPDEPIIEVTAVLSAILILVLVLPFKVRIVEENLEAFFFIMGLLGVATIYYYGILPTPDSLIGLFIKAFKTPLAIAHVGPIPIGIVQAVVFFGLVFYFFHKHIYSILASTMEKVGIPVFAFILTFLLGLISSVISVIVTAVILAEIAAALNISRERKVKYVVYASFAVGIGAALTPLGEPLSTIAISKLNAHFTYLIDILGVYIVPGIAVSAVAAAYSLRGEVYREGLVKFVYEESINEILLRGFRVFLFVAALELLGASFTPMVKWYFAQLPSWALYWINTISAVVDNATLTAAEMGPFLTEEQIRSALMSLLISGGMLIPGNIPNIVAAGRLRITMNEWARVGVPFGIALLLAYFIVIEVLDIHITLSF | failed
MAEQEDIILEKPEDGLNQPRLDESLEGFKGQEGQAPEDEEFASLPEELPQENSESGFKFTRESAPEDVSTFEEVESQEPTPWYKDRKFMSLVGLSLGIICILVFTLFYLTFSEGKIKPDIIASKPLEQPVIMPDESYKYNDMQRIDGMIQKANALYLKGEVEQALKVYEQVAVYNESLSNYNLGVSQMNENKFQEAFESFKKAIANGENQSVAAINAAVCALKLNDKEKFRYYIDLAQVYLPKEGKSKLYDYYLSLINYYKGYYPEALQMLQRTDVEPYSDVAKYLSAKIYAKMDFDSKAIQQLNSQGNFESSLSLGLLYARIGEYAKAKVALSTAMKIERDFNQSLAALTLVDIKTGNYQDMLARLQNSYDNDKDRYKILDTYKIQVRLNKDLFNIAVAQNSFSKDLLKKQKDQFDLLFYFAPYQVFDSKQAALYIKKANVTDFVDDSTDAGIYLNISKALSSTNVKIANIINYALNQKLRLANQEFQKLIKDYPEHSILHYNLALTYAQMQNYELAYKHFSSSYHLNPKNYLAGAFAMFCAKLIDIDTTKLYNEILDNIAADSNFKANMQKSMLFLVNNNYISMLPYLDETKKDTPLSLIFEAIVAKNNNLNNQVDVKIAKLRSELPEDILANILYFNSLNSNLNIKEYAQNAQIHFKNLKLDYRSVFGGPNIAREFYVNLMHIAGLLNLERQKFKELINVSGAKDEGILQTLAYLDIFAQQYEEAYALYNSLIDDYGAKDTKTLFLAAVAAVGANNPNSAIALLQLSKLTDKNNKESKAALGMLYQEVKNYEAAISQYKTLPNNFKSEFFTFDINNN | failed
MAERSFSQLPISSSHIGRRTGNTRRGIFPVSEYWIHAIPVIVFLCFFTLWIFSHSVSVMNDGEIMSIHRLEKSMAVRNESHVSLAILASSAVSPASSALVAVVSTNQNLTTFHNATQSQQNATQSVNKAKQPHAV | not failed
MAESLITKKAIAGGLMELCQHKRFEKISIADITNICGLNRQTFYYHFTDKYDLLTWTYENDFFHCLADGITLENWDKHVLKMLESIKENADFYKNTVSADASILSFCFSKLTNSLFMDLFEKIDTNGAVNEADRVFYAEFFSYGCSGVLIKWITRGFKEAPETIANQLFRLAKDTEFLANSMYRENLEHHHHHH | not failed
MAETDPKTVQDLTSVVQTLLQQMQDKFQTMSDQIIGRIDDMSSRIDDLEKNIADLMTQAGVEELESENKIPATQKS | failed
